Experimental data reported in article PMC12124358.

Key:
[1] = molecular target: unmodified histone H3 N-terminal tail (residues 1 to 20) (UniProt P68431)
[2] = molecular target: H3 (3–19)_([change]-[change]) (UniProt P68431); assay: crystal structure
[3] = molecular target: H3 (3–19)_([change]-[change])-Ub_([change]) (UniProt P68431); assay: crystal structure

Clr4 lysine methyltransferase (KMT) domain (residues 192 to 490), sequence (O60016 192-490): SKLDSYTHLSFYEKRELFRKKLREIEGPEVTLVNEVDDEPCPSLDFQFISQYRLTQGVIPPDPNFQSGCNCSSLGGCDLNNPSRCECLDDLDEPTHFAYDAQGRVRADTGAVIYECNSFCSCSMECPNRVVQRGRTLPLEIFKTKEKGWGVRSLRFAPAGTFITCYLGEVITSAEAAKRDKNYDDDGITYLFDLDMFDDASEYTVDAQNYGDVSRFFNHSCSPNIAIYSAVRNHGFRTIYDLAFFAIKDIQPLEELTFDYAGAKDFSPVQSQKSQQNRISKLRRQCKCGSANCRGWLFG
full-length Clr4 (residues 1 to 490), sequence (O60016 whole entry, the tested form may be a part): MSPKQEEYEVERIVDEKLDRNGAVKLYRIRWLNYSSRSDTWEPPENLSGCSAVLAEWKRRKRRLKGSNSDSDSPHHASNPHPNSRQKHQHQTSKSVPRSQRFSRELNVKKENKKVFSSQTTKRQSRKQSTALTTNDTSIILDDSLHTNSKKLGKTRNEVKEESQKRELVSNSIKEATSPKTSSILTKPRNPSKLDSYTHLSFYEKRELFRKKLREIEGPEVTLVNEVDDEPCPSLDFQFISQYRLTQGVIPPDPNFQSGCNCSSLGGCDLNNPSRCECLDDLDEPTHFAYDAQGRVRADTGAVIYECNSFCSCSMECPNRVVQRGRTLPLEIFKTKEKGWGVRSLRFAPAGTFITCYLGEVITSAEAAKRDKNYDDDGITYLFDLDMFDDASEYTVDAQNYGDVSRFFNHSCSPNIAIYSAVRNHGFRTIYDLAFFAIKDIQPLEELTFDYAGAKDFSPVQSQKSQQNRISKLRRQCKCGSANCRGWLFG

Km, Michaelis-Menten kinetics of H3K9 methylation (MTase-Glo, SAH production) [1] | stoichiometry N [2] | stoichiometry N [3] | Substance
75.8 µM |  |  | full-length Clr4 (residues 1 to 490) (from UniProt O60016 1-490) (enzyme)
26.5 µM |  |  | full-length Clr4 K455A/K472A (automethylation-mimicking) (from UniProt O60016 1-490) (enzyme)
 | 1 | 1 | Clr4 lysine methyltransferase (KMT) domain (residues 192 to 490) (from UniProt O60016 192-490) (domain or fragment)
